The target of test [1] is T1, PSMA Fab (006 PSMA Fab) (biotinylated (site not stated)).
T1 construct: Biotinylated PSMA Fab captured on neutravidin coated plates in the phage ELISA; also called Anti-PSMA Fab; anti-PSMA Fab
The test can be described thus: clonal phage supernatant on captured PSMA Fab pre-incubated with the competitor PSMA antigen, anti-M13-HRP detection.

The target of test [2] is T1, PSMA Fab (006 PSMA Fab). The test can be described thus: clonal phage supernatant on biotinylated PSMA Fab captured on neutravidin plate, anti-M13-HRP detection.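 Further: before phage were added, wells received PSMA antigen in blocking buffer or blocking buffer alone, with no wash in between, followed by a short phage incubation.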
Method: (§1) Clonal phage were harvested as crude supernatants and screened via standard ELISAs. […] Prior to the addition of clonal phage. wells were incubated with blocking buffer and PSMA antigen or blocking buffer alone. Without washing or aspirating, clonal phage supernatants were then added to the wells and incubated for a short time. Wells were then washed followed by detection of bound phage using a horse radish conjugated anti-M13 antibody.
For test [3], the target named is T2, PSMA Fab (006 PSMA Fab) (biotinylated (site not stated)).
T2 construct: Captured as biotinylated PSMA Fab on neutravidin coated plates in the phage ELISA; also called Anti-PSMA Fab; anti-PSMA Fab
The test can be described thus: phage ELISA: clonal phage on biotinylated PSMA Fab captured on neutravidin plate, wells pre-incubated with PSMA antigen as competitor, anti-M13 HRP detection. (ELISA stands for enzyme-linked immunosorbent assay.)

Test [4] deals with T2, PSMA Fab (006 PSMA Fab). The test can be described thus: phage ELISA: clonal phage on biotinylated PSMA Fab captured on neutravidin plate, anti-M13 HRP detection.
Method: as §1
The target of test [5] is T3, Anti-PSMA Fab.
T3 construct: also called 006 PSMA Fab
The test can be described thus: clonal phage ELISA; biotinylated PSMA Fab on neutravidin plate, blocking buffer alone; anti-M13 HRP detection.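 Further: crude clonal phage supernatants added without washing to wells pretreated with blocking buffer with or without PSMA antigen, short incubation, then washed before detecting bound phage.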
Method: as §1

Test [6] addresses T3, Anti-PSMA Fab. The test can be described thus: clonal phage ELISA; biotinylated PSMA Fab on neutravidin plate, wells pre-incubated with PSMA antigen as competitor; anti-M13 HRP detection.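 Further: crude clonal phage supernatants added to antigen-treated wells without a wash, incubated briefly, then bound phage read out via horse radish–conjugated anti-M13 antibody.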
Method: as §1

Where no end group is shown, it is not given here.

B1: Phage-3704 (peptide)
peptide: GDVRCVPSWMCEGY
notes: not shown: pIII filament protein of the bacteriophage
B1: the “Phage binding ELISA signal, Anti-PSMA Fab in presence of PSMA antigen” value (“Phage binding ELISA signal … of PSMA antigen” below) in test [1] was 0.0816. In addition, the “Phage binding ELISA signal, Anti-PSMA Fab” value in test [2] came to 1.43.

B2: Phage-3719 (peptide)
peptide: SEALCVPKWMCHGF
Turning to B2, the “Phage binding ELISA signal, Anti-PSMA Fab in presence of PSMA” value in test [3] amounted to 0.0994. The “Phage binding ELISA signal, Anti-PSMA Fab” value in test [4] is 1.42.

B3: Phage-3696 (peptide)
peptide: TMQMCKPAWMCSQL
In the case of B3, the “Phage binding ELISA signal, Anti-PSMA Fab” value in test [5] came to 1.45. In addition, the “Phage binding ELISA signal, Anti-PSMA Fab in presence of PSMA” value in test [6] was 0.0765.

B4: Phage-3718 (peptide)
peptide: ESPICKPSWMCSGL
As for B4, the “Phage binding ELISA signal, Anti-PSMA Fab in presence of PSMA” value in test [3] turned out to be 0.0616. Further, the “Phage binding ELISA signal, Anti-PSMA Fab” value in test [4] amounted to 1.42.

B5: Phage-3699 (peptide)
peptide: YLHECRPEWMCVGF
With B5, the “Phage binding ELISA signal, Anti-PSMA Fab” value in test [5] came to 1.45. Further, in test [6], the “Phage binding ELISA signal, Anti-PSMA Fab in presence of PSMA” value amounted to 0.153.

B6: Phage-3710 (peptide)
peptide: EGRYCVPDWMCLGL
modifications: cysteine pairing not given here; also: displayed on phage as pIII fusion
notes: as for B1
As for B6, the “Phage binding ELISA signal … of PSMA antigen” value in test [1] was found to be 0.0705. For the same molecule, the “Phage binding ELISA signal, Anti-PSMA Fab” value in test [2] stood at 1.43.

B7: Phage-3724 (peptide)
peptide: EEKLCKPAWMCEWF
On to B7, for which, in test [3], the “Phage binding ELISA signal, Anti-PSMA Fab in presence of PSMA” value was found to be 0.096. Further, the “Phage binding ELISA signal, Anti-PSMA Fab” value in test [4] was 1.41.

B8: Phage-3721 (peptide)
peptide: GENWCVPQWMCDGF
Turning to B8, the “Phage binding ELISA signal, Anti-PSMA Fab in presence of PSMA” value in test [3] worked out at 0.139. Besides, the “Phage binding ELISA signal, Anti-PSMA Fab” value in test [4] was determined as 1.41.

B9: Phage-3695 (peptide)
peptide: SQHSCIPSWMCNGF
For B9, the “Phage binding ELISA signal, Anti-PSMA Fab” value in test [5] came to 1.45. In test [6], the “Phage binding ELISA signal, Anti-PSMA Fab in presence of PSMA” value is 0.154.

B10: Phage-3711 (peptide)
peptide: IAFRCVPEWMCSAF
modifications: cysteine pairing not given here; also: displayed on phage as pIII fusion
notes: as for B1
Regarding B10, the “Phage binding ELISA signal … of PSMA antigen” value in test [1] stood at 0.07. Besides, in test [2], the “Phage binding ELISA signal, Anti-PSMA Fab” value came to 1.43.

B11: Phage-3689 (peptide)
peptide: LPHACKPSWMCQGF
B11: in test [5], the “Phage binding ELISA signal, Anti-PSMA Fab” value was 1.47. Further, the “Phage binding ELISA signal, Anti-PSMA Fab in presence of PSMA” value in test [6] was determined as 0.0636.

B12: Phage-3697 (peptide)
peptide: NEKLCVPTWMCDGL
As for B12, in test [5], the “Phage binding ELISA signal, Anti-PSMA Fab” value turned out to be 1.45. In test [6], the “Phage binding ELISA signal, Anti-PSMA Fab in presence of PSMA” value worked out at 0.0612.

B13: Phage-3700 (peptide)
peptide: GLPYCVPSWMCDGF
On to B13, for which, in test [5], the “Phage binding ELISA signal, Anti-PSMA Fab” value was 1.44. In addition, the “Phage binding ELISA signal, Anti-PSMA Fab in presence of PSMA” value in test [6] came out at 0.0858.

B14: Phage-3725 (peptide)
peptide: DVLMCTPRWMCDGF
Turning to B14, the “Phage binding ELISA signal, Anti-PSMA Fab in presence of PSMA” value in test [3] came to 0.0822. Also, the “Phage binding ELISA signal, Anti-PSMA Fab” value in test [4] is 1.41.

B15: Phage-3694 (peptide)
peptide: TVPRCVPAWMCNWS
Take B15: the “Phage binding ELISA signal, Anti-PSMA Fab” value in test [5] is 1.45. Moreover, the “Phage binding ELISA signal, Anti-PSMA Fab in presence of PSMA” value in test [6] turned out to be 0.0917.

B16: Phage-3723 (peptide)
peptide: PYAVCVPKWMCSGF
For the molecule B16, the “Phage binding ELISA signal, Anti-PSMA Fab in presence of PSMA” value in test [3] came out at 0.0805. The “Phage binding ELISA signal, Anti-PSMA Fab” value in test [4] worked out at 1.41.

B17: Phage-3722 (peptide)
peptide: AYMKCSPAWMCEGF
With B17, in test [3], the “Phage binding ELISA signal, Anti-PSMA Fab in presence of PSMA” value was 0.0811. Besides, the “Phage binding ELISA signal, Anti-PSMA Fab” value in test [4] was found to be 1.41.

B18: Phage-3709 (peptide)
peptide: EHIRCQPSWMCWGF
modifications: cysteine pairing not given here; also: displayed on phage as pIII fusion
notes: as for B1
On to B18, for which the “Phage binding ELISA signal … of PSMA antigen” value in test [1] was 0.128. The “Phage binding ELISA signal, Anti-PSMA Fab” value in test [2] amounted to 1.43.

B19: Phage-3713 (peptide)
peptide: LEGMCKPAWMCTGF
modifications: cysteine pairing not given here; also: displayed on phage as pIII fusion
notes: as for B1
For B19, in test [1], the “Phage binding ELISA signal … of PSMA antigen” value turned out to be 0.0862. Besides, the “Phage binding ELISA signal, Anti-PSMA Fab” value in test [2] came out at 1.42.

B20: Phage-3714 (peptide)
peptide: GQAACVPSWMCSGF
modifications: cysteine pairing not given here; also: displayed on phage as pIII fusion
notes: as for B1
For the molecule B20, the “Phage binding ELISA signal … of PSMA antigen” value in test [1] amounted to 0.0867. For the same molecule, the “Phage binding ELISA signal, Anti-PSMA Fab” value in test [2] is 1.42.

B21: Phage-3705 (peptide)
peptide: MSMSCVPLWMCSGF
notes: as for B1
Take B21: the “Phage binding ELISA signal … of PSMA antigen” value in test [1] was found to be 0.0698. The “Phage binding ELISA signal, Anti-PSMA Fab” value in test [2] was determined as 1.43.

B22: Phage-3717 (peptide)
peptide: MEWHCKPKWMCEGF
For B22, the “Phage binding ELISA signal, Anti-PSMA Fab in presence of PSMA” value in test [3] was 0.0772. For the same molecule, the “Phage binding ELISA signal, Anti-PSMA Fab” value in test [4] is 1.42.

B23: Phage-3707 (peptide)
peptide: VDHMCKPMWMCNGF
notes: as for B1
As to B23, in test [1], the “Phage binding ELISA signal … of PSMA antigen” value is 0.0673. Also, the “Phage binding ELISA signal, Anti-PSMA Fab” value in test [2] came to 1.43.

B24: Phage-3716 (peptide)
peptide: IERMCMPPWMCSAL
As for B24, in test [3], the “Phage binding ELISA signal, Anti-PSMA Fab in presence of PSMA” value stood at 0.0662. Besides, in test [4], the “Phage binding ELISA signal, Anti-PSMA Fab” value turned out to be 1.42.

B25: Phage-3712 (peptide)
peptide: EVWMCRPSWMCDGF
modifications: cysteine pairing not given here; also: displayed on phage as pIII fusion
notes: as for B1
Turning to B25, the “Phage binding ELISA signal … of PSMA antigen” value in test [1] was 0.0717. Further, the “Phage binding ELISA signal, Anti-PSMA Fab” value in test [2] came to 1.43.

B26: Phage-3691 (peptide)
peptide: VNERCIPDWMCVGF
For the molecule B26, in test [5], the “Phage binding ELISA signal, Anti-PSMA Fab” value turned out to be 1.46. In addition, in test [6], the “Phage binding ELISA signal, Anti-PSMA Fab in presence of PSMA” value was determined as 0.0649.

B27: Phage-3706 (peptide)
peptide: EIPLCRPEWMCTGL
notes: as for B1
On to B27, for which the “Phage binding ELISA signal … of PSMA antigen” value in test [1] was determined as 0.126. The “Phage binding ELISA signal, Anti-PSMA Fab” value in test [2] was determined as 1.43.

B28: Phage-3692 (peptide)
peptide: DHMMCVPPWMCDGI
On to B28, for which, in test [5], the “Phage binding ELISA signal, Anti-PSMA Fab” value worked out at 1.46. Moreover, the “Phage binding ELISA signal, Anti-PSMA Fab in presence of PSMA” value in test [6] was 0.119.

B29: Phage-3715 (peptide)
peptide: YGVQCVPSWMCQGF
Take B29: the “Phage binding ELISA signal, Anti-PSMA Fab in presence of PSMA” value in test [3] was determined as 0.0735. For the same molecule, the “Phage binding ELISA signal, Anti-PSMA Fab” value in test [4] stood at 1.42.

B30: Phage-3698 (peptide)
peptide: DVPYCIPSWMCHGF
As for B30, in test [5], the “Phage binding ELISA signal, Anti-PSMA Fab” value turned out to be 1.45. The “Phage binding ELISA signal, Anti-PSMA Fab in presence of PSMA” value in test [6] came to 0.249.

B31: Phage-3702 (peptide)
peptide: PGALCVPFWMCQGF
notes: as for B1
On to B31, for which the “Phage binding ELISA signal … of PSMA antigen” value in test [1] came to 0.108. Further, the “Phage binding ELISA signal, Anti-PSMA Fab” value in test [2] is 1.44.

B32: Phage-3703 (peptide)
peptide: VPRMCIPHWMCEGI
notes: as for B1
B32: in test [1], the “Phage binding ELISA signal … of PSMA antigen” value was 0.0731. Besides, the “Phage binding ELISA signal, Anti-PSMA Fab” value in test [2] was 1.43.

B33: Phage-3693 (peptide)
peptide: SEHYCVPNWMCAGL
For B33, the “Phage binding ELISA signal, Anti-PSMA Fab” value in test [5] is 1.46. Besides, in test [6], the “Phage binding ELISA signal, Anti-PSMA Fab in presence of PSMA” value came to 0.0995.

B34: Phage-3690 (peptide)
peptide: ALSMCVPQWMCQGF
As for B34, in test [5], the “Phage binding ELISA signal, Anti-PSMA Fab” value was 1.46. Moreover, in test [6], the “Phage binding ELISA signal, Anti-PSMA Fab in presence of PSMA” value came to 0.0597.

B35: Phage-3720 (peptide)
peptide: EPRACVPFWMCLGF
For the molecule B35, in test [3], the “Phage binding ELISA signal, Anti-PSMA Fab in presence of PSMA” value was determined as 0.0796. Further, the “Phage binding ELISA signal, Anti-PSMA Fab” value in test [4] was determined as 1.42.

B36: Phage-3708 (peptide)
peptide: TDRVCTPAWMCQGL
notes: as for B1
As to B36, the “Phage binding ELISA signal … of PSMA antigen” value in test [1] worked out at 0.0772. Also, in test [2], the “Phage binding ELISA signal, Anti-PSMA Fab” value stood at 1.43.

B37: Phage-3701 (peptide)
peptide: EVLLCKPSWMCDGF
notes: as for B1
Consider B37, for which the “Phage binding ELISA signal … of PSMA antigen” value in test [1] is 0.185. Moreover, the “Phage binding ELISA signal, Anti-PSMA Fab” value in test [2] was found to be 1.44.

(Values after patent US20260242478A1 (published 2026).)
